tested on: Escherichia coli TOP10; assay: shrunken log2 fold change of peptide-encoding DNA abundance (4.5 h post-induction vs induction); higher = less antimicrobial activity (less host growth inhibition); settings: time post-induction: 4.5 h; library: site-saturation at positions 5, 18, 19, 20
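Further: peptides expressed intracellularly from a pBAD plasmid library in pooled LB shake-flask culture, induced with 0.3% L-arabinose, DNA abundance read by NGS, three biological replicates, DESeq2 with apeglm shrinkage.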

In order of rising “shrunken log2 fold change” value:
1. RRIRHRPPRLPRPRPRPSIHPRP  -0.924
2. RRIRYRPPRLPRPRPRPVMFPRP  -0.899
3. RRIRNRPPRLPRPRPRPQYKPRP  -0.876
4. RRIRNRPPRLPRPRPRPYIMPRP  -0.741
5. RRIRVRPPRLPRPRPRPDNIPRP  -0.714
6. RRIRLRPPRLPRPRPRPPYNPRP  -0.689
7. RRIRIRPPRLPRPRPRPFVQPRP  -0.634
8. RRIRNRPPRLPRPRPRPLWYPRP  -0.619
9. RRIRNRPPRLPRPRPRPNHDPRP  -0.602
10. RRIRARPPRLPRPRPRPYWIPRP  -0.556
11. RRIRARPPRLPRPRPRPSCNPRP  -0.515
12. RRIRCRPPRLPRPRPRPQDLPRP  -0.472
13. RRIRPRPPRLPRPRPRPFVSPRP  -0.443
14. RRIRIRPPRLPRPRPRPLLEPRP  -0.437
15. RRIRMRPPRLPRPRPRPYHEPRP  -0.391
16. RRIRFRPPRLPRPRPRPMWTPRP  -0.37
17. RRIRFRPPRLPRPRPRPRIYPRP  -0.326
18. RRIRMRPPRLPRPRPRPCFHPRP  -0.318
19. RRIRHRPPRLPRPRPRPVYNPRP  -0.303
20. RRIRARPPRLPRPRPRPVFNPRP  -0.297
21. RRIRCRPPRLPRPRPRPVEIPRP  -0.296
22. RRIRDRPPRLPRPRPRPNVTPRP  -0.282
23. RRIRSRPPRLPRPRPRPWGTPRP  -0.222
24. RRIRNRPPRLPRPRPRPSGMPRP  -0.207
25. RRIRERPPRLPRPRPRPVPQPRP  -0.195
26. RRIRARPPRLPRPRPRPQNCPRP  -0.19
27. RRIRQRPPRLPRPRPRPEMYPRP  -0.173
28. RRIRIRPPRLPRPRPRPTNGPRP  -0.166
29. RRIRSRPPRLPRPRPRPQTWPRP  -0.164
30. RRIRKRPPRLPRPRPRPYGHPRP  -0.162
31. RRIRRRPPRLPRPRPRPVMVPRP  -0.153
32. RRIRARPPRLPRPRPRPYAWPRP  -0.129
33. RRIRMRPPRLPRPRPRPQIPPRP  -0.127
34. RRIRERPPRLPRPRPRPCKDPRP  -0.117
35. RRIRVRPPRLPRPRPRPMYGPRP  -0.116
36. RRIRTRPPRLPRPRPRPTTMPRP  -0.109
37. RRIRYRPPRLPRPRPRPKDRPRP  -0.109
38. RRIRSRPPRLPRPRPRPYDWPRP  -0.102
39. RRIRCRPPRLPRPRPRPMKSPRP  -0.1
40. RRIRLRPPRLPRPRPRPKVEPRP  -0.0879
41. RRIRTRPPRLPRPRPRPRIVPRP  -0.0873
42. RRIRNRPPRLPRPRPRPKFAPRP  -0.0695
43. RRIRKRPPRLPRPRPRPNDLPRP  -0.054
44. RRIRLRPPRLPRPRPRPVVCPRP  -0.0501
45. RRIRDRPPRLPRPRPRPDREPRP  -0.0481
46. RRIRKRPPRLPRPRPRPCIPPRP  -0.0433
47. RRIRLRPPRLPRPRPRPNCCPRP  -0.0382
48. RRIRKRPPRLPRPRPRPIWIPRP  -0.0325
49. RRIRIRPPRLPRPRPRPCSEPRP  -0.0312
50. RRIRPRPPRLPRPRPRPAIFPRP  -0.0302
51. RRIRLRPPRLPRPRPRPDVGPRP  -0.0266
52. RRIRKRPPRLPRPRPRPIYQPRP  -0.0246
53. RRIRTRPPRLPRPRPRPLEGPRP  -0.0217
54. RRIRLRPPRLPRPRPRPVYDPRP  -0.0147
55. RRIRHRPPRLPRPRPRPFDNPRP  -0.0137
56. RRIRMRPPRLPRPRPRPVKRPRP  -0.0121
57. RRIRDRPPRLPRPRPRPEAMPRP  -0.00943
58. RRIRTRPPRLPRPRPRPEHWPRP  -0.00863
59. RRIRVRPPRLPRPRPRPMAGPRP  -0.00674
60. RRIRERPPRLPRPRPRPMPTPRP  -0.00177
61. RRIRTRPPRLPRPRPRPEMCPRP  -0.00146
62. RRIRLRPPRLPRPRPRPMAQPRP  -0.00088
63. RRIRQRPPRLPRPRPRPNWWPRP  0.00333
64. RRIRQRPPRLPRPRPRPYEPPRP  0.00408
65. RRIRYRPPRLPRPRPRPAEWPRP  0.00902
66. RRIRQRPPRLPRPRPRPCKQPRP  0.0108
67. RRIRQRPPRLPRPRPRPWYYPRP  0.0179
68. RRIRKRPPRLPRPRPRPHMDPRP  0.0185
69. RRIRDRPPRLPRPRPRPVASPRP  0.0264
70. RRIRSRPPRLPRPRPRPCYQPRP  0.0321
71. RRIRVRPPRLPRPRPRPGVDPRP  0.0334
72. RRIRQRPPRLPRPRPRPWDWPRP  0.0372
73. RRIRMRPPRLPRPRPRPMHCPRP  0.0428
74. RRIRWRPPRLPRPRPRPMQCPRP  0.0434
75. RRIRNRPPRLPRPRPRPRCGPRP  0.0586
76. RRIRLRPPRLPRPRPRPICEPRP  0.0628
77. RRIRDRPPRLPRPRPRPIHMPRP  0.0641
78. RRIRMRPPRLPRPRPRPPQFPRP  0.0882
79. RRIRMRPPRLPRPRPRPHSIPRP  0.0955
80. RRIRDRPPRLPRPRPRPMQPPRP  0.0977
81. RRIRFRPPRLPRPRPRPTKHPRP  0.101
82. RRIRVRPPRLPRPRPRPISRPRP  0.107
83. RRIRCRPPRLPRPRPRPDPGPRP  0.112
84. RRIRQRPPRLPRPRPRPREIPRP  0.115
85. RRIRRRPPRLPRPRPRPDENPRP  0.118
86. RRIRWRPPRLPRPRPRPMDTPRP  0.128
87. RRIRKRPPRLPRPRPRPLTWPRP  0.13
88. RRIRDRPPRLPRPRPRPMCLPRP  0.131
89. RRIRTRPPRLPRPRPRPGIQPRP  0.131
90. RRIRCRPPRLPRPRPRPPKKPRP  0.132
91. RRIRRRPPRLPRPRPRPTASPRP  0.146
92. RRIRRRPPRLPRPRPRPIQFPRP  0.153
93. RRIRGRPPRLPRPRPRPDFIPRP  0.157
94. RRIRLRPPRLPRPRPRPGECPRP  0.159
95. RRIRERPPRLPRPRPRPGAKPRP  0.188
96. RRIRGRPPRLPRPRPRPSLYPRP  0.189
97. RRIRWRPPRLPRPRPRPLVEPRP  0.2
98. RRIRLRPPRLPRPRPRPYWAPRP  0.216
99. RRIRCRPPRLPRPRPRPASWPRP  0.219
100. RRIRGRPPRLPRPRPRPHYRPRP  0.231
101. RRIRERPPRLPRPRPRPHATPRP  0.238
102. RRIRDRPPRLPRPRPRPIGCPRP  0.242
103. RRIRCRPPRLPRPRPRPEELPRP  0.249
104. RRIRTRPPRLPRPRPRPARQPRP  0.263
105. RRIRWRPPRLPRPRPRPAQWPRP  0.287
106. RRIRVRPPRLPRPRPRPLQEPRP  0.298
107. RRIRQRPPRLPRPRPRPPRWPRP  0.303
108. RRIRNRPPRLPRPRPRPACPPRP  0.307
109. RRIRRRPPRLPRPRPRPLSWPRP  0.361
110. RRIRWRPPRLPRPRPRPSLAPRP  0.428
111. RRIRLRPPRLPRPRPRPPLHPRP  0.456
112. RRIRKRPPRLPRPRPRPIGAPRP  0.479
113. RRIRCRPPRLPRPRPRPTRQPRP  0.503
114. RRIRARPPRLPRPRPRPQPWPRP  0.536
115. RRIRFRPPRLPRPRPRPNKDPRP  0.539
116. RRIRCRPPRLPRPRPRPQWNPRP  0.618
117. RRIRARPPRLPRPRPRPDIWPRP  0.69
118. RRIRMRPPRLPRPRPRPTHWPRP  0.864
119. RRIRGRPPRLPRPRPRPKQAPRP  0.865
120. RRIRMRPPRLPRPRPRPVCGPRP  0.898
121. RRIRGRPPRLPRPRPRPRAEPRP  1.01
122. RRIRMRPPRLPRPRPRPLCTPRP  1.19
123. RRIRGRPPRLPRPRPRPGAMPRP  1.25
124. RRIRSRPPRLPRPRPRPRKVPRP  1.58
125. RRIRMRPPRLPRPRPRPDCCPRP  2.61
